{"source": "paper PMC9841435", "about": "“Structural basis of DNA polymerase θ mediated DNA end joining” (Nucleic Acids Research, 2022)", "molecules": {"B1": {"name": "20/29 mer dsDNA, ddA-terminated primer (dsDNA)", "DNA 1": "TGCTGTGAGGCATCCGTAGA", "DNA 2": "GCAGTCAGCTCTACGGATGCCTCACAGCA", "modifications": "3'-terminal dideoxy-A on primer"}}, "key": {"LcPol θ-pol [1]": {"test_system": "T1, LcPol θ-pol", "T1 construct": "gene polq; C-terminal polymerase domain (pseudo-exonuclease, thumb, finger, palm), residues 1950-2714 of 2714; synthetic gene in pETsumo2; His6-SUMO tag removed by SENP2; E. coli Rosetta2 (DE3); mainly monomeric", "assay": "steady-state primer extension, denaturing PAGE of 6-FAM hairpin DNA", "assay_type": "biochemical, Lates calcarifer", "details": "1 μM hairpin DNA HP [3,9], 1 nM enzyme, 5 mM MgCl2, 100 mM KCl, pH 7.6, 37 °C; read-out: KM, dATP"}, "LcPol θ-pol [2]": {"test_system": "T1, LcPol θ-pol", "assay": "steady-state primer extension, denaturing PAGE of 6-FAM hairpin DNA", "assay_type": "biochemical, Lates calcarifer", "details": "Δloop2_b (ΔV2405–R2448); 1 μM hairpin DNA HP [3,9], 200 nM enzyme, 5 mM MgCl2, 100 mM KCl, pH 7.6, 37 °C; read-out: KM, dATP"}, "LcPol theta-pol WT [3]": {"molecular_target": "T2, LcPol theta-pol WT (Lates calcarifer, UniProt PDB:8EFK_1 1-864)", "T2 sequence (chain, as listed by the source)": "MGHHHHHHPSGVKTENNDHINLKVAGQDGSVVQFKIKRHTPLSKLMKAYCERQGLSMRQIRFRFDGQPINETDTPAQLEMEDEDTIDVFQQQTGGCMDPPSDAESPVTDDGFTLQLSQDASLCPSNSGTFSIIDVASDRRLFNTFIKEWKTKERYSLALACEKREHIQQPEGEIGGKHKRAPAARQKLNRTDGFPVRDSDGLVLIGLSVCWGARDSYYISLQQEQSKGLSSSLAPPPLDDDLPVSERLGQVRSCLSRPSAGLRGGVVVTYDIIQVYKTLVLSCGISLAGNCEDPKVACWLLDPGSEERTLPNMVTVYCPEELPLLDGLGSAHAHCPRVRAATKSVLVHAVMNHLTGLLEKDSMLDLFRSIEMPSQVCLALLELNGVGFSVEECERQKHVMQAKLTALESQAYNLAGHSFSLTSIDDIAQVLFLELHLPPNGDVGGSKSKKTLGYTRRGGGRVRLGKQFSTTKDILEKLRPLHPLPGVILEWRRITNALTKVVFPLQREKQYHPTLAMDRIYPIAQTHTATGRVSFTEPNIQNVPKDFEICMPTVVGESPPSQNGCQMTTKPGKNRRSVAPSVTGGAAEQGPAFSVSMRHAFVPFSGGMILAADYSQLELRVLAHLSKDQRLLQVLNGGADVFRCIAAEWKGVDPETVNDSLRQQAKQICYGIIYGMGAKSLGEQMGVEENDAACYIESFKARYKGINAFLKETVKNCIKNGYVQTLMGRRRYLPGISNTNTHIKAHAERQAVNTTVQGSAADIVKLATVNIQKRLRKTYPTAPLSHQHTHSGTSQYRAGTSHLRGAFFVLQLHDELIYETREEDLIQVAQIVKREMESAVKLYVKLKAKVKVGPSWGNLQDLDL", "assay": "cryo-EM; dGTP, Mg2+; complex Ia, 2.4 A, 11 bp visible; EMSA: 10 nM HP [3,9], 25 mM HEPES pH 8.0, 100 mM KCl, 3 mM DTT, 100 ug/ml BSA, 10% glycerol, 2.5 mM EDTA, 0.01% NP40, on ice 20 min; 6% native PAGE, Tris-glycine; Hill fit", "details": "protein: recombinant; tags: His6-SUMO, removed by SENP2; primer/template, 20 bp, template 5' overhang 9 nt"}, "LcPol theta-pol WT [4]": {"molecular_target": "T2, LcPol theta-pol WT", "assay": "EMSA; 2.5 mM EDTA, no dNTP; EMSA: 10 nM HP [3,9], 25 mM HEPES pH 8.0, 100 mM KCl, 3 mM DTT, 100 ug/ml BSA, 10% glycerol, 2.5 mM EDTA, 0.01% NP40, on ice 20 min; 6% native PAGE, Tris-glycine; Hill fit", "details": "protein: recombinant; tags: His6-SUMO, removed by SENP2; label: 5' 6-FAM; hairpin, 3-bp stem, 9-nt dT loop, 5' overhang 8 nt"}, "LcPol theta-pol Δloop1": {"molecular_target": "LcPol theta-pol Δloop1 (Lates calcarifer, UniProt PDB:8EFK_1 1-864, del443-461)", "sequence (chain, as listed by the source del443-461 | mutant)": "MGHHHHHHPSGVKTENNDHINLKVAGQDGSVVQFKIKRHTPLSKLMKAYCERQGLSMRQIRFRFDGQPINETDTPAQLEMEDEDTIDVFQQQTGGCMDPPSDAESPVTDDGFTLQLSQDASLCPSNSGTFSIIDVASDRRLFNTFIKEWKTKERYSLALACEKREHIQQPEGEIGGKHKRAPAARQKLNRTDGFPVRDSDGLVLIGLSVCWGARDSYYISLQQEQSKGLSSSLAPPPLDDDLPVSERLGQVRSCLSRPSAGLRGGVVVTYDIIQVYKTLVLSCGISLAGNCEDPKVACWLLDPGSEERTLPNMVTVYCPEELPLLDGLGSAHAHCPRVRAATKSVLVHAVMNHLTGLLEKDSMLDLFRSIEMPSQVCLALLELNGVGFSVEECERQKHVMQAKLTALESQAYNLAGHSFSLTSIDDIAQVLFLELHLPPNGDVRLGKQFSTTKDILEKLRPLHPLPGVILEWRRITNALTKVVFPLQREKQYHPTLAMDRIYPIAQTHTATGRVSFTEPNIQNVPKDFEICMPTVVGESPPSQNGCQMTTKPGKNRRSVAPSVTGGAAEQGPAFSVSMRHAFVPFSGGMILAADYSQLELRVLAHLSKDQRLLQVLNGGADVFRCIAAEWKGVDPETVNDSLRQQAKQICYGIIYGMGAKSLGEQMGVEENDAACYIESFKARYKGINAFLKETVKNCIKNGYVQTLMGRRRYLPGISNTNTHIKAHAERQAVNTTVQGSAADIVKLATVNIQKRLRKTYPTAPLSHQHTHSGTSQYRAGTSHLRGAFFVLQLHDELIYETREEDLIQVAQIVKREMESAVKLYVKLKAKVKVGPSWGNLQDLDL", "assay": "EMSA; 2.5 mM EDTA, no dNTP; EMSA: 10 nM HP [3,9], 25 mM HEPES pH 8.0, 100 mM KCl, 3 mM DTT, 100 ug/ml BSA, 10% glycerol, 2.5 mM EDTA, 0.01% NP40, on ice 20 min; 6% native PAGE, Tris-glycine; Hill fit", "details": "protein: recombinant; tags: His6-SUMO, removed by SENP2; label: 5' 6-FAM; hairpin, 3-bp stem, 9-nt dT loop, 5' overhang 8 nt"}, "[5]": {"molecular_target": "LcPol theta-pol K2299A/K2300A/R2306A/R2307A (Lates calcarifer, UniProt PDB:8EFK_1 1-864, K449A;K450A;R456A;R457A)", "sequence (chain, as listed by the source with the stated changes)": "as the sequence (chain, as listed by the source) above, with K449A, K450A, R456A, R457A counted along it", "assay": "EMSA; 2.5 mM EDTA, no dNTP; EMSA: 10 nM HP [3,9], 25 mM HEPES pH 8.0, 100 mM KCl, 3 mM DTT, 100 ug/ml BSA, 10% glycerol, 2.5 mM EDTA, 0.01% NP40, on ice 20 min; 6% native PAGE, Tris-glycine; Hill fit", "details": "protein: recombinant; tags: His6-SUMO, removed by SENP2; label: 5' 6-FAM; hairpin, 3-bp stem, 9-nt dT loop, 5' overhang 8 nt"}, "LcPol theta-pol Δloop2_b": {"molecular_target": "LcPol theta-pol Δloop2_b (Lates calcarifer, UniProt PDB:8EFK_1 1-864, del555-598)", "sequence (chain, as listed by the source del555-598 | mutant)": "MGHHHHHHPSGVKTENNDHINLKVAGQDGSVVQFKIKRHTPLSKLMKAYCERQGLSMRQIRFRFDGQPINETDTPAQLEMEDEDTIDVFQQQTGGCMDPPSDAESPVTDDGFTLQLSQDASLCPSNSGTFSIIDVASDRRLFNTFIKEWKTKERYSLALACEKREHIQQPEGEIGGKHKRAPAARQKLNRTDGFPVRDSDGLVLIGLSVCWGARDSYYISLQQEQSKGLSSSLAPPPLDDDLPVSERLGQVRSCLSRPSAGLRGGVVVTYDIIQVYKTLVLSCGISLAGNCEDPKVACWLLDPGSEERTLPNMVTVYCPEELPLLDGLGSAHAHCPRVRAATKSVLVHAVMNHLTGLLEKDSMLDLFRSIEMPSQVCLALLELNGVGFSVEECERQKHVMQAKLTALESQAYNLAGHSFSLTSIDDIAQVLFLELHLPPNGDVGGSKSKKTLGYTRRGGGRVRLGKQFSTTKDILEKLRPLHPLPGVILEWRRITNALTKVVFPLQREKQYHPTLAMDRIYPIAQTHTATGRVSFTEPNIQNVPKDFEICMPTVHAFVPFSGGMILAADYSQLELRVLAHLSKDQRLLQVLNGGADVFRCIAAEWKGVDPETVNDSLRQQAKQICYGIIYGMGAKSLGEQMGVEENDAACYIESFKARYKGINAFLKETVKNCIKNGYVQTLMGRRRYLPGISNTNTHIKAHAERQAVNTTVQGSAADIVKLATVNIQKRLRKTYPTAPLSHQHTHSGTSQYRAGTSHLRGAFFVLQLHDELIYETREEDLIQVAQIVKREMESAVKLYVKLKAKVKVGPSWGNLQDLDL", "assay": "EMSA; 2.5 mM EDTA; Kd comparable to WT; EMSA: 10 nM HP [3,9], 25 mM HEPES pH 8.0, 100 mM KCl, 3 mM DTT, 100 ug/ml BSA, 10% glycerol, 2.5 mM EDTA, 0.01% NP40, on ice 20 min; 6% native PAGE, Tris-glycine; Hill fit", "details": "protein: recombinant; tags: His6-SUMO, removed by SENP2; label: 5' 6-FAM; hairpin, 3-bp stem, 9-nt dT loop, 5' overhang 8 nt"}, "LcPol theta-pol Δloop2_a": {"molecular_target": "LcPol theta-pol Δloop2_a (Lates calcarifer, UniProt PDB:8EFK_1 1-864, del552-591)", "sequence (chain, as listed by the source del552-591 | mutant)": "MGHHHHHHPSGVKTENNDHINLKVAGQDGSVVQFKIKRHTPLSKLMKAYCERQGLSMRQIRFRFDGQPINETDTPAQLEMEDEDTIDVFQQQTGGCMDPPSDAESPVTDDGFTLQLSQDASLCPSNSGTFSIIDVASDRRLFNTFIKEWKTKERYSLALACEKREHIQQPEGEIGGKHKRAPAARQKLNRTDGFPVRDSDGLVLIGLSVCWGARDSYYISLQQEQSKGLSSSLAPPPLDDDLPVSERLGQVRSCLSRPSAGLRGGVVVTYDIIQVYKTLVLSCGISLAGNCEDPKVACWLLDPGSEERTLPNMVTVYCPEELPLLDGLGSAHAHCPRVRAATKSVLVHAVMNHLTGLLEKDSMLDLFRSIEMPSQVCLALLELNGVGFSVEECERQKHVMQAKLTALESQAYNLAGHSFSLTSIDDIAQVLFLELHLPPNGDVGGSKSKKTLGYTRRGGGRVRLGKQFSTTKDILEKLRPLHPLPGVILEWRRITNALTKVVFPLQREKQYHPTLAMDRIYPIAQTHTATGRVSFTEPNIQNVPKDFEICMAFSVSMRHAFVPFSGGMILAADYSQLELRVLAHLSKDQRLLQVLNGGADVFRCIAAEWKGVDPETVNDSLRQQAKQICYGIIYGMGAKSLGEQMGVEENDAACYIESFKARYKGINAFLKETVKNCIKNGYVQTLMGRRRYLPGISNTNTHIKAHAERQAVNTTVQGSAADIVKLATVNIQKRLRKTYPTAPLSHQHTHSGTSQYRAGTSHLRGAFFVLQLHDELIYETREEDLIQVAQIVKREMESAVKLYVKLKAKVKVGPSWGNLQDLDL", "assay": "EMSA; 2.5 mM EDTA; Kd comparable to WT; EMSA: 10 nM HP [3,9], 25 mM HEPES pH 8.0, 100 mM KCl, 3 mM DTT, 100 ug/ml BSA, 10% glycerol, 2.5 mM EDTA, 0.01% NP40, on ice 20 min; 6% native PAGE, Tris-glycine; Hill fit", "details": "protein: recombinant; tags: His6-SUMO, removed by SENP2; label: 5' 6-FAM; hairpin, 3-bp stem, 9-nt dT loop, 5' overhang 8 nt"}, "LcPol theta-pol R2448A": {"molecular_target": "LcPol theta-pol R2448A (Lates calcarifer, UniProt PDB:8EFK_1 1-864, R598A)", "sequence (chain, as listed by the source R598A | R2448A R2448A)": "as the sequence (chain, as listed by the source) above, with R598A counted along it", "assay": "EMSA; 2.5 mM EDTA; Kd comparable to WT; EMSA: 10 nM HP [3,9], 25 mM HEPES pH 8.0, 100 mM KCl, 3 mM DTT, 100 ug/ml BSA, 10% glycerol, 2.5 mM EDTA, 0.01% NP40, on ice 20 min; 6% native PAGE, Tris-glycine; Hill fit", "details": "protein: recombinant; tags: His6-SUMO, removed by SENP2; label: 5' 6-FAM; hairpin, 3-bp stem, 9-nt dT loop, 5' overhang 8 nt"}, "[6]": {"molecular_target": "LcPol theta-pol K2299A/K2300A (Lates calcarifer, UniProt PDB:8EFK_1 1-864, K449A;K450A)", "sequence (chain, as listed by the source K449A;K450A | K2299A K2300A K2299A K2300A)": "as the sequence (chain, as listed by the source) above, with K449A, K450A counted along it", "assay": "EMSA; 2.5 mM EDTA; affinity similar to WT; EMSA: 10 nM HP [3,9], 25 mM HEPES pH 8.0, 100 mM KCl, 3 mM DTT, 100 ug/ml BSA, 10% glycerol, 2.5 mM EDTA, 0.01% NP40, on ice 20 min; 6% native PAGE, Tris-glycine; Hill fit", "details": "protein: recombinant; tags: His6-SUMO, removed by SENP2; label: 5' 6-FAM; hairpin, 3-bp stem, 9-nt dT loop, 5' overhang 8 nt"}, "[7]": {"molecular_target": "LcPol theta-pol R2306A/R2307A (Lates calcarifer, UniProt PDB:8EFK_1 1-864, R456A;R457A)", "sequence (chain, as listed by the source R456A;R457A | R2306A R2307A R2306A R2307A)": "as the sequence (chain, as listed by the source) above, with R456A, R457A counted along it", "assay": "EMSA; 2.5 mM EDTA; affinity similar to WT; EMSA: 10 nM HP [3,9], 25 mM HEPES pH 8.0, 100 mM KCl, 3 mM DTT, 100 ug/ml BSA, 10% glycerol, 2.5 mM EDTA, 0.01% NP40, on ice 20 min; 6% native PAGE, Tris-glycine; Hill fit", "details": "protein: recombinant; tags: His6-SUMO, removed by SENP2; label: 5' 6-FAM; hairpin, 3-bp stem, 9-nt dT loop, 5' overhang 8 nt"}}, "note": "Like-named read-outs stand apart in the source and are kept apart here.", "data": [{"molecule": "Nc1ncnc2c1ncn2[C@H]1C[C@H](O)[C@@H](COP(=O)(O)OP(=O)(O)OP(=O)(O)O)O1", "note": "[dATP]", "values": [{"measurement": "Km", "setting": "LcPol θ-pol [1]", "result": 12, "unit": "µM"}, {"measurement": "Km", "setting": "LcPol θ-pol [2]", "result": 157, "unit": "µM"}]}, {"molecule": "B1", "values": [{"measurement": "binding result", "setting": "LcPol theta-pol WT [3]", "result": "binds"}]}, {"molecule": "TTTTTTTTGGCTTTTTTTTTGCC (structured_DNA)", "note": "[HP [3,9]]", "values": [{"measurement": "Kd", "setting": "LcPol theta-pol WT [4]", "result": 29, "unit": "nM"}, {"measurement": "Kd", "setting": "LcPol theta-pol Δloop1", "result": 138, "unit": "nM"}, {"measurement": "Kd", "setting": "[5]", "result": 50, "unit": "nM"}, {"measurement": "binding result", "setting": "LcPol theta-pol Δloop2_b", "result": "binds"}, {"measurement": "binding result", "setting": "LcPol theta-pol Δloop2_a", "result": "binds"}, {"measurement": "binding result", "setting": "LcPol theta-pol R2448A", "result": "binds"}, {"measurement": "binding result", "setting": "[6]", "result": "binds"}, {"measurement": "binding result", "setting": "[7]", "result": "binds"}]}]}
